From US20240352445A1 (published 2024)
Substitutions are numbered along the chain they refer to.

B1: C-A11 (antibody, V domains shown)
VH: QSLEESGGRLVTPGTPLTLTCTVSGFSLSTYAMSWVRQAPGKGLEWIGVIASNADTYYASWAKGRITISKTSTTVDLKITSPTTEDTATYFCARHPGSAGYGYAVYYAMDPWGPGTLVTVSS
VL: AIEMTQSPSSLAASVGDTVTITCKASEDIRYGLNWYQQKLGIAPKLLIYGANTLEAGVPSRFSGSGSETDYTLTISSVQAEDAGIYYCQQGYSTPLTFGAGTKVEIK
B2: rabbit monoclonal antibody C-A11 (antibody, V domains shown)
VH: B1 VH
VL: B1 VL
B3: hN2F (antibody, V domains shown)
VH: EVQLVESGGGLVQPGGSLRLSCTVSGFSLSTYAMSWVRQAPGKGLEWIGVIASNADTYYASWAKGRFTISRDNSKNTLYLQMNSLRAEDTAVYYCARHPGSAGYGYAVYYAMDPWGQGTLVTVSS
VL: DIQMTQSPSSLSASVGDRVTITCKASEDIRYGLNWYQQKPGKAPKLLIYGANTLEAGVPSRFSGSGSGTDFTLTISSLQPEDFATYYCQQGYSTPLTFGGGTKVEIK
B4: humanized antibody hN2Y (antibody, V domains shown)
VH: B3 VH
VL: B3 VL with F71Y
B5: humanized antibody hN2F (antibody, V domains shown)
VH: B3 VH
VL: B3 VL
B6: hN2Y (antibody, V domains shown)
VH: B3 VH
VL: B3 VL with F71Y
B7: LxC1-G10 (antibody, V domains shown)
VH: B3 VH
VL: DIQMTQSPSSLSASVGDRVTITCQASERVFYGIDWYQQKPGKAPKLLIYGASALWHGVPSRFSGSGSGTDYTLTISSLQPEDFATYYCQQGYMVPIGFGGGTKVEIK

What was measured:
[1] = target: Epsilon (B.1.427)
[2] = target: SARS-CoV-2 spike protein trimer, wild type (SARS-CoV-2, UniProt P0DTC2 16-1213)

Binder	IC50 [1] [µg/mL]	IC50 [2] [µg/mL]
B1	0.014	
B2		0.027
B3	0.0178	
B4		0.0382
B5		0.0246
B6	0.018	
B7	0.0169	
